Sequences and labels used below:
B1: Whi5-NLS-P peptide (peptide)
peptide: Biotin-GGSGGTP[pS]PP[pS]PPGI
notes: flexible linker; By the printed limits the phosphoserines are Ser59 and Ser62; also called phosphorylated Whi5-NLS peptide; Whi5 phospho-peptide; source: synthetic peptide (NEOBioLab), HPLC purified >95%
B3: CTD-P peptide (phosphorylated peptide corresponding to the CTD of RNAPII) (peptide)
peptide: Biotin-GGSGGSYSPT[pS]PSYS
notes: flexible linker ([Gly-Gly-Ser]2); based on the consensus heptapeptide repeat in the carboxy-terminal domain (CTD) of Rpb1, largest subunit of RNA polymerase II; The phosphoserine is Ser5 of the heptad YSPTSPS; also called phospho-CTD peptide; phosphorylated CTD peptide; source: synthetic peptide (NEOBioLab), HPLC purified >95%
B5: Recombinant S. cerevisiae Ess1 protein (enzyme, UniProt P22696 1-170, looked up)
chain: MPSDVASRTGLPTPWTVRYSKSKKREYFFNPETKHSQWEEPEGTNKDQLHKHLRDHPVRVRCLHILIKHKDSRRPASHRSENITISKQDATDELKTLITRLDDDSKTNSFEALAKERSDCSSYKRGGDLGWFGRGEMQPSFEDAAFQLKVGEVSDIVESGSGVHVIKRVG
notes: Ess1 peptidyl prolyl cis/trans isomerase, S. cerevisiae; also called purified Ess1 protein; Ess1 prolyl isomerase; source: Escherichia coli, purified as described (Li et al. 2005)
B6: Swi6-NLS-P peptide (peptide)
peptide: Biotin-GGSGGSRELG[pS]PLKK
notes: flexible linker ([Gly-Gly-Ser]2); By the printed limits the phosphoserine is Ser160; also called phosphorylated Swi6-NLS peptide; phospho-Swi6 peptide; source: synthetic peptide (NEOBioLab), HPLC purified >95%
B9: Whi5-NES-P peptide (peptide)
peptide: Biotin-GGSGGFL[pS]P[pS]PRLR[pS]PPT
notes: flexible linker; Whi5, S. cerevisiae, residues 152-164 (portion of the nuclear export signal); By the printed limits the phosphoserines are Ser154, Ser156 and Ser161; also called phosphorylated Whi5-NES peptide; Whi5 phospho-peptide; source: synthetic peptide (NEOBioLab), HPLC purified >95%

Common to all, as to assay: BLI; Octet RED, 24°; N-terminally biotinylated peptides immobilised on streptavidin biosensors; Ess1 in solution (3, 10, 30 μM); 20 mM Tris-HCl pH 8.0, 1 mg/mL BSA; no-peptide sensor subtracted; apparent dissociation constants (Kapp) from kinetic and equilibrium data, considering only the predominant faster-dissociating signal; for unphosphorylated peptides Kapp estimated from the signal at 30 μM Ess1
Holding throughout (conditions): both partners purified

Assay [1] concerns the target B5.
The assay “Whi5-NES-P peptide” concerns the target B9.
Assay [2] concerns the target B3.
The target of the assay “Whi5-NLS-P peptide” is B1.
The assay “Swi6-NLS-P peptide” addresses B6.
Assay [3] deals with B5. The source holds these as a separate data set.

The koff is the rate constant with which the complex falls apart.

Non-standard residues stand in square brackets, D forms with d. No end group written: not given here. *: point of attachment. Biotin = O=C1N[C@H]2[C@H](CS[C@H]2CCCCC(=O)*)N1; pS = N[C@@H](COP(=O)(O)O)C(=O)O

Regarding B1, the Kd in assay [1] is 1.67 µM.

B2: Swi6-NLS peptide (unphosphorylated) (peptide)
peptide: Biotin-GGSGGSRELGSPLKK
notes: flexible linker ([Gly-Gly-Ser]2); source: synthetic peptide (NEOBioLab), HPLC purified >95%
In the case of B2, the Kd in assay [1] is greater than 100 µM. In the case of B3, the Kd in assay [1] was 2.12 µM.

B4: CTD peptide (unphosphorylated) (peptide)
peptide: Biotin-GGSGGSYSPTSPSYS
notes: flexible linker ([Gly-Gly-Ser]2); based on the consensus heptapeptide repeat in the carboxy-terminal domain (CTD) of Rpb1, largest subunit of RNA polymerase II; also called unphosphorylated CTD peptide; unphosphorylated CTD control peptide; source: synthetic peptide (NEOBioLab), HPLC purified >95%
For the molecule B4, the Kd in assay [1] was greater than 300 µM. On to B5, for which the “KappEq (equilibrium)” value with Whi5-NES-P peptide is 1.13 ± 0.18 µM; in assay [2] it was 1.65 ± 0.06 µM; with Whi5-NLS-P peptide, 0.48 ± 0.46 µM; with Swi6-NLS-P peptide, 10.1 ± 5.1 µM. For the same molecule, the “KappK (kinetic)” value in the assay with Whi5-NES-P peptide was 3.25 ± 0.7 µM; in assay [2], 2.58 ± 0.65 µM; in the assay with Whi5-NLS-P peptide, 2.87 ± 0.82 µM; with Swi6-NLS-P peptide, 7.25 ± 4.63 µM.

B6: the Kd in assay [1] was 8.67 µM. Also, in assay [3], the koff was 0.254 s⁻¹.

B7: Whi5-NES peptide (unphosphorylated) (peptide)
peptide: Biotin-GGSGGFLSPSPRLRSPPT
notes: flexible linker; Whi5, S. cerevisiae, residues 152-164 (portion of the nuclear export signal); source: synthetic peptide (NEOBioLab), HPLC purified >95%
Regarding B7, in assay [1], the Kd is greater than 1500 µM.

B8: Whi5-NLS peptide (unphosphorylated) (peptide)
peptide: Biotin-GGSGGTPSPPSPPGI
notes: flexible linker; source: synthetic peptide (NEOBioLab), HPLC purified >95%
In the case of B8, the Kd in assay [1] was greater than 25 µM. Regarding B9, in assay [1], the Kd is 2.19 µM.

The values are drawn from article PMC3962490, “The Yeast Ess1 Prolyl Isomerase Controls Swi6 and Whi5 Nuclear Localization” (G3: Genes|Genomes|Genetics, 2014).
